In one test the target is human mAb 4E10 (human). Put plainly: SPR. In general terms: SPR reads the build-up and loss of mass on a sensor chip optically.
In a further test the target is recombinant soluble CD4 (UniProt P01730). Put plainly: SPR.

pKd: −log10 of the molar value.

The pKd is the negative decadic logarithm of the Kd, by convention in mol/L.

human mAb 4E10 (human), sequence (light, as listed by the source, chain 2 of 2, other chains not shown): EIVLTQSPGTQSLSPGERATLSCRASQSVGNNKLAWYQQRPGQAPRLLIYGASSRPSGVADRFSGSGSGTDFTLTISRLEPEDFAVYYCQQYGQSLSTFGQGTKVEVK

“CON-S gp140CFI Env, natively deglycosylated with PNGase F 500 U per µg”: the fold enhancement of Kd against WT glycosylated CON-S gp140 with human mAb 4E10 (human) turned out to be 7 fold. Also, in the test with recombinant soluble CD4, the pKd was 8.03. “HIV-1 JRFL gp140CF Env, WT glycosylated (domain or fragment)”: in the test with recombinant soluble CD4, the negative-log Kd (pKd) is 8.24. For “HIV-1 JRFL gp140CF Env, natively deglycosylated with PNGase F 500 U per µg (domain or fragment)”, the negative logarithm of the Kd (pKd) with recombinant soluble CD4 is 7.45. For the substance “group M consensus gp140 Env, CON-S gp140CFI, WT glycosylated”, the pKd with recombinant soluble CD4 is 8.13.
